Test results published in US20240132603A1 (HARBOUR BIOMED US, published 2024).
Where two headings read alike, the source gives them in different places.

What was measured:
[1] = molecular target: T1, cynomolgus monkey CCR8 (cynomolgus monkey, UniProt G7NYJ2 1-355); assay: FACS, CHO-K1-CynoCCR8 cells
T1 construct: whole, on cells; also called CynoCCR8
Procedure, shortened: (§1)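 Anti-CCR8 antibodies titrated in 5-fold steps from 200 nM onto 1E6 cells/mL CHO-K1-CynoCCR8 in DPBS/2% FBS, 1 h at 4 °C. Bound antibody detected with 1:1000 secondary antibody, 40 min at 4 °C, then flow cytometry.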

[2] = molecular target: T1, cynomolgus monkey CCR8; assay: FACS, CHO-K1-CynoCCR8 cells; remark: listed apart in the source
Procedure, shortened: as §1

[3] = molecular target: T2, human CCR8 (human, UniProt P51685 1-355); assay: FACS on HEK293 cells overexpressing human CCR8
T2 construct: whole, on cells; construct used for the overexpressing cell lines is not described; also called hCCR8
T2 sequence (P51685 whole entry): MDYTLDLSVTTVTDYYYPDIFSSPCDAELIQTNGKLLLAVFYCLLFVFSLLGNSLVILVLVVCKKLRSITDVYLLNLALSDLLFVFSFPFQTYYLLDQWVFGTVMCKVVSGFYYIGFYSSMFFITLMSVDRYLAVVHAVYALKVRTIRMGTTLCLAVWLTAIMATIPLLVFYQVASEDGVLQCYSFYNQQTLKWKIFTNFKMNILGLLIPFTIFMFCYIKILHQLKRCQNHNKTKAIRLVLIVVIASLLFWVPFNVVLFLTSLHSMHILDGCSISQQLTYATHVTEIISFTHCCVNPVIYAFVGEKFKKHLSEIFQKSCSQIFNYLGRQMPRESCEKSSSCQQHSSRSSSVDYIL
Procedure: Cells overexpressing human CCR8 were digested with pancreatin, counted and resuspended to a cell density of 1E6 cells/mL. The cell suspension was added to a 96-well V-bottom plate at 100 μL/well and centrifuged at 300 g for 5 min, and the supernatant was discarded. The anti-CCR8 antibodies provided herein was used as a primary antibody and diluted in a 5-fold gradient with an FACS buffer (DPBS containing 2% FBS) from 200 nM. The diluted primary antibody was added at 100 μL/well to resuspend the cells, and the mixture was incubated at 4° C. for 1 h. The plate was washed twice with DPBS and centrifuged at 300×g for 5 min, and the supernatant was discarded. The secondary antibody diluted in a 1:1000 ratio with an FACS buffer was added at 100 μL/well to suspend the cells, and the mixture was incubated at 4° C. for 40 min. The plate was washed twice with DPBS and centrifuged at 300×g for 5 min, and the supernatant was discarded. DPBS was added at 200 μL/well to suspend the cells, and the mixture was loaded on an FACS machine for analysis.

[4] = molecular target: T2, human CCR8; assay: FACS competition on HEK293-hCCR8 cells against a biotin-labelled anti-CCR8 antibody at its EC80; the labelled antibody of this panel is not named on the sheet
Procedure: (§2) The antibody was conjugated with Sulfo-NHS-LC-Biotin at a molar ratio of 5:1 (1 mol antibody was added to 5 mol Sulfo-NHS-LC-Biotin) with reference to the product instructions (ThermoFisher, Cat No. A39257) and incubated on ice for 2 h. The coupled antibody was purified with a Zeba desalting column (ThermoFisher, Cat No. 89882). Cells overexpressing human CCR8, HEK293-hCCR8, were added to a V-bottom 96-well plate at a density of 1E5 cells/well and centrifuged at 300 g for 5 min, and the supernatant was discarded. The competitive antibody was serially diluted in a ratio of 1:10 from 200 nM to obtain 8 concentration points. The Biotin-antibody and the competition antibody were mixed in a 1:1 ratio on an HEK293 cell line overexpressing human CCR8 by the binding EC₈₀ concentration. The cells in the 96-well plate were resuspended and incubated at 4° C. for 1 h. The plate was washed twice with DPBS at 200 μL/well. The secondary antibody diluted in a 1:1000 ratio was added at 100 μL/well, and the mixture was incubated at 4° C. for 40 min. The plate was washed twice with DPBS at 200 μL/well. Finally, DPBS was […] at 200 μL/well to suspend the cells, and the mixture was loaded on an FACS machine for analysis.

[5] = molecular target: T2, human CCR8; assay: FACS, HEK293-hCCR8 cells
Procedure, shortened: (§3)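 Cells are harvested with pancreatin and brought to 1E6 cells/mL. They then receive anti-CCR8 antibody (5-fold series, top 200 nM, 1 h, 4 °C), washes, secondary antibody (1:1000, 40 min, 4 °C) and FACS analysis.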

[6] = molecular target: T2, human CCR8; assay: cell-based or functional assay
[7] = molecular target: T2, human CCR8; assay: FACS competition on HEK293-hCCR8 cells against a biotin-labelled anti-CCR8 antibody at its EC80; the labelled antibody of this panel is not named on the sheet; remark: listed apart in the source
Procedure: as §2

[8] = molecular target: T2, human CCR8; assay: FACS, CHO-K1-hCCR8 cells
Procedure, shortened: as §3

[9] = molecular target: T2, human CCR8; assay: FACS competition on HEK293-hCCR8 cells against a biotin-labelled anti-CCR8 antibody at its EC80; the labelled antibody of this panel is not named on the sheet; remark: listed apart in the source
Procedure: as §2

[10] = molecular target: T2, human CCR8; assay: FACS, Baf3-hCCR8 cells
Procedure, shortened: as §3

[11] = molecular target: T2, human CCR8; assay: FACS, HEK293-hCCR8 cells; remark: listed apart in the source
Procedure, shortened: as §3

[12] = molecular target: T2, human CCR8; assay: FACS competition on HEK293-hCCR8 cells against a biotin-labelled anti-CCR8 antibody at its EC80; the labelled antibody of this panel is not named on the sheet; remark: listed apart in the source
Procedure: as §2

[13] = molecular target: T2, human CCR8; assay: as above; remark: listed apart in the source
Procedure: as §2

T1 sequence (G7NYJ2 entry or part of it): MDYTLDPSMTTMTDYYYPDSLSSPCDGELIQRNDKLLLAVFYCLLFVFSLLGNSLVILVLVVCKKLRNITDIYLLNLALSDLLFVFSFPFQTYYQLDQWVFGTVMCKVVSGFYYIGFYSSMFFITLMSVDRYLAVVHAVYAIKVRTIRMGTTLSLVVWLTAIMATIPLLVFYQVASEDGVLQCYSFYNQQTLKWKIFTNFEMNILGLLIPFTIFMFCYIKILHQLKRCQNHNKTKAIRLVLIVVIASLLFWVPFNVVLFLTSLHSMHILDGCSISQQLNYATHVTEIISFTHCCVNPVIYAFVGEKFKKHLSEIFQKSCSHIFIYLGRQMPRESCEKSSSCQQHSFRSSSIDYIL

EC50 [1]: 1.06 nM | EC50 [2]: 2.83 nM | EC50 (read off the curve) [3]: ~1 nM | IC50 (read off the curve) [4]: ~3 nM | EC50 [5]: 0.66 nM | Bottom %, blocking of CCL1-stimulated calcium flux [6]: 12% | IC50(nM), blocking of CCL1-stimulated calcium flux [6]: 1.47 nM | IC50 (read off the curve) [7]: ~2 nM | EC50 [8]: 0.5 nM | IC50 (read off the curve) [9]: 1 to 2 nM | EC50 [10]: 0.17 nM | EC50 [11]: 0.99 nM | IC50 (read off the curve) [12]: ~2 nM | IC50 (read off the curve) [13]: ~2 nM
B1: PR004122 (antibody, human IgG1, kappa)
heavy: not shown
light: DIVMTQAAPSVPVTPGESVSISCRSSKSLLHSNGNTYLYWFLQRPGQSPQLLIYRMSNLASGVPDRFSGSGSGTAFTLRISRVEAEDVGVYYCMQHLEYPLTFGAGTKLELKRTVAAPSVFIFPPSDEQLKSGTASVVCLLNNFYPREAKVQWKVDNALQSGNSQESVTEQDSKDSTYSLSSTLTLSKADYEKHKVYACEVTHQGLSSPVTKSFNRGEC
notes: chimeric, human IgG1 constant region
